Test results reported in paper PMC5159559.

T1: APRIN (PDS5B) (UniProt Q9NTI5 1-1447)
T1 sequence: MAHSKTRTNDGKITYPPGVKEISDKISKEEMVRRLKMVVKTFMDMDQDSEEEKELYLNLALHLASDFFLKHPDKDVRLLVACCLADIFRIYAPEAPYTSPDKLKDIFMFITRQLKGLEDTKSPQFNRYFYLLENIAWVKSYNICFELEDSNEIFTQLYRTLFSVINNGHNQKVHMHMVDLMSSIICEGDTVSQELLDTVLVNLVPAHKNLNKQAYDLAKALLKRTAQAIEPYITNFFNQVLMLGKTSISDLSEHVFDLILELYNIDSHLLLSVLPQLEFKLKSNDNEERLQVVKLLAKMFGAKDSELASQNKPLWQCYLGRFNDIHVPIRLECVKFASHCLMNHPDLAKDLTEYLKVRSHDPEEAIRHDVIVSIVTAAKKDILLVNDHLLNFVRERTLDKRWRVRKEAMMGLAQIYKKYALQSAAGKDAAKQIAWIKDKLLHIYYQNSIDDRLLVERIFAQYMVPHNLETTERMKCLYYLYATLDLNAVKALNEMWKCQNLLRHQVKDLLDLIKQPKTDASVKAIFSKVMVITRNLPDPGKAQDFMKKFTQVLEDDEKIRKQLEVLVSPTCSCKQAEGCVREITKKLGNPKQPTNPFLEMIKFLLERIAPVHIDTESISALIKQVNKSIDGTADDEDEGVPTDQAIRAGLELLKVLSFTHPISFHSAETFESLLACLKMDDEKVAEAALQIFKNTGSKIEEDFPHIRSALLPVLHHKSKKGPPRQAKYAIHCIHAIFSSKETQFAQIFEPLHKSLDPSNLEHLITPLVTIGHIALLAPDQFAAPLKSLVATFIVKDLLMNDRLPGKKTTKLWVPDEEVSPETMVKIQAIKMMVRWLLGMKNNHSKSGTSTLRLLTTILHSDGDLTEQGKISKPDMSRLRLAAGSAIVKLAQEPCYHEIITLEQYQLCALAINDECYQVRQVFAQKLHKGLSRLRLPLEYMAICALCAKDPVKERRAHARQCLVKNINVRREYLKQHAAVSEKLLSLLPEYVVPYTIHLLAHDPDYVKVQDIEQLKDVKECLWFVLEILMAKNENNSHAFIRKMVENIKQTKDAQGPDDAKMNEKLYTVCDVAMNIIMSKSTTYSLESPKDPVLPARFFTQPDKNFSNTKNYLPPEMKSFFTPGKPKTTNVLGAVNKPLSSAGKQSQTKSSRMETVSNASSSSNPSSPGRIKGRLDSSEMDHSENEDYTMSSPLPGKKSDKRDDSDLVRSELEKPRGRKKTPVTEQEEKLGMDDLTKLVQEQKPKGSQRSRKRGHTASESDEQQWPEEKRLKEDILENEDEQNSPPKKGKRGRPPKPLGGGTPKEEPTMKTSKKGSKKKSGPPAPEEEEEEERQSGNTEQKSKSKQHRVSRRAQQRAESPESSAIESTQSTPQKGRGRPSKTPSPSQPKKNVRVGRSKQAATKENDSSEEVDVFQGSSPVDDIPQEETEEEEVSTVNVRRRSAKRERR

B1: ssDNA (JYM925) (ssDNA)
DNA: GGGTGAACCTGCAGGTGGGCAAAGATGTCCTAGCAATGTAATCGTCAAGCTTTATGCCGT
B2: dsDNA (JYM925/JYM945) (dsDNA)
DNA 1: GGGTGAACCTGCAGGTGGGCAAAGATGTCCTAGCAATGTAATCGTCAAGCTTTATGCCGT
DNA 2: ACGGCATAAAGCTTGACGATTACATTGCTAGGACATCTTTGCCCACCTGCAGGTTCACCC
B3: Splayed arms (JYM925/JYM926) (structured_DNA)
DNA 1: GGGTGAACCTGCAGGTGGGCAAAGATGTCCTAGCAATGTAATCGTCAAGCTTTATGCCGT
DNA 2: ACGCTGCCGAATTCTACCAGTGCCAGCGACGGACATCTTTGCCCACCTGCAGGTTCACCC
B4: Holliday junction (JYM925/926/927/928) (structured_DNA)
DNA 1: GGGTGAACCTGCAGGTGGGCAAAGATGTCCTAGCAATGTAATCGTCAAGCTTTATGCCGT
DNA 2: ACGCTGCCGAATTCTACCAGTGCCAGCGACGGACATCTTTGCCCACCTGCAGGTTCACCC
DNA 3: ACGGCATAAAGCTTGACGATTACATTGCTACATGGAGCTGTCTAGAGGATCCGACTATCG
DNA 4: CGATAGTCGGATCCTCTAGACAGCTCCATGGTCGCTGGCACTGGTAGAATTCGGCAGCGT

Each binder was assayed against T1, APRIN (PDS5B) (assay: EMSA).
B1: binds.
B2: no binding.
B3: binds.
B4: binds.
